According to publication PMC9130538, “Amino acids in transmembrane helix 1 confer major functional differences between human and mouse orthologs of the polyspecific membrane transporter OCT1” (The Journal of Biological Chemistry, 2022):

Columns and labels:
Experiment in all cases: cells, lysate or membranes
[1] = substrate: CC(C)(C)NCC(O)c1cc(O)cc(O)c1; conditions: other: HEK293 stably transfected, 2 min uptake, 37 °C, pH 7.4
[2] = substrate: CC(C)(C)NCC(O)c1ccc(O)c(CO)c1; conditions: other: HEK293 stably transfected, 2 min uptake, 37 °C, pH 7.4
[3] = substrate: CC(C)(C)NCC(O)c1ccc(O)c(CO)n1; conditions: other: HEK293 stably transfected, 2 min uptake, 37 °C, pH 7.4
[4] = substrate: CC(C)NCC(O)c1cc(O)cc(O)c1; conditions: other: HEK293 stably transfected, 2 min uptake, 37 °C, pH 7.4
[5] = substrate: CC(CCc1ccc(O)cc1)NCC(O)c1ccc(O)cc1; conditions: other: HEK293 stably transfected, 2 min uptake, 37 °C, pH 7.4
Experimental: (§1) Cells were cultured in Dulbecco’s Modified Eagle’s Medium supplemented with 10% fetal bovine serum, 100 U/ml penicillin, and 100 μg/ml streptomycin at 37 °C and 5% CO2 and were passaged twice a week.
(§2) At 48 h prior to the experiment, 6 × 10^5 cells were seeded per well in 12-well plates. When using transiently transfected cells, 5 × 10^5 T-REx-293 cells (Life Technologies) were seeded per well in 12-well plates 72 h prior to the experiment, and they were transfected 24 h later as described previously. Twelve-well plates were precoated with poly-D-lysine.
(§3) Cellular uptake experiments were performed at 37 °C and pH 7.4 using HBSS supplemented with 10 mM Hepes (in the following referred to as HBSS+). Cells were washed with 1 ml prewarmed (37 °C) HBSS+, and the uptake was initiated by adding 400 μl of prewarmed HBSS+ containing the substrate. Uptake was allowed for exactly 2 min and afterward stopped by adding 2 ml ice-cold HBSS+. Cells were washed twice with 2 ml ice-cold HBSS+ and lysed with 80% acetonitrile supplemented with internal standard, 0.1 N NaOH/0.1% SDS, or radioimmunoprecipitation buffer for LC–MS/MS, liquid scintillation counting, or fluorescence spectroscopy detection, respectively. Intracellular substrate concentrations were measured as described in the following and were then normalized to the amount of total protein in the samples as measured using the bicinchoninic acid assay ([51]).
(§4) For LC–MS/MS quantification of intracellular substrate concentrations, the cell lysate was centrifuged at 16,000g for 15 min, and 350 μl of supernatant was evaporated to dryness under nitrogen flow at 40 °C. The sample was reconstituted with 200 μl 0.1% formic acid, and between 2 and 30 μl were injected into the LC–MS/MS system (Table S1).
(§5) An API4000 QTRAP tandem mass spectrometer with ESI interface (AB SCIEX) was used, coupled to a Shimadzu Nexera X2 UHPLC system with LC 30AD pumps and SiL 30AC autosampler (Shimadzu).
(§6) Intracellular concentrations of radioactively labeled substrates MPP^+ and TEA^+ were quantified using liquid scintillation counting. To this end, 400 μl cell lysate was transferred into a 20 ml scintillation vial, 9 ml Aquasafe 500 Plus liquid scintillator (both Zinsser Analytics) was added, and the sample was measured in the Scintillation Counter LS6500 (Beckman Coulter).

[6] = substrate: CC(Cc1ccc(O)cc1)NCC(O)c1cc(O)cc(O)c1; conditions: other: HEK293 stably transfected, 2 min uptake, 37 °C, pH 7.4
[7] = substrate: CC(NCCc1ccc(O)cc1)C(O)c1ccc(O)cc1; conditions: other: HEK293 stably transfected, 2 min uptake, 37 °C, pH 7.4
[8] = substrate: CNC(=C[N+](=O)[O-])NCCSCc1ccc(CN(C)C)o1; conditions: other: HEK293 stably transfected, 2 min uptake, 37 °C, pH 7.4
[9] = substrate: CNC[C@H](O)c1ccc(O)c(O)c1; conditions: other: HEK293 stably transfected, 2 min uptake, 37 °C, pH 7.4
[10] = substrate: CNS(=O)(=O)Cc1ccc2[nH]cc(CCN(C)C)c2c1; conditions: other: HEK293 stably transfected, 2 min uptake, 37 °C, pH 7.4
[11] = substrate: COc1ccc(CC(C)NCC(O)c2ccc(O)c(NC=O)c2)cc1; conditions: other: HEK293 stably transfected, 2 min uptake, 37 °C, pH 7.4
[12] = substrate: NCCc1c[nH]c2ccc(O)cc12; conditions: other: HEK293 stably transfected, 2 min uptake, 37 °C, pH 7.4
[13] = substrate: NCCc1c[nH]cn1; conditions: other: HEK293 stably transfected, 2 min uptake, 37 °C, pH 7.4
[14] = substrate: NCCc1ccc(O)c(O)c1; conditions: other: HEK293 stably transfected, 2 min uptake, 37 °C, pH 7.4
[15] = substrate: O=C(O[C@H]1C[C@H]2CC[C@@H](C1)[N+]21CCCC1)C(O)(c1ccccc1)c1ccccc1; conditions: pH 7.4; 37.0 °C
Experimental: as §1, §2, §3, §4, §5, §6

[16] = substrate: [H]/N=C(/N)N/C(=N/[H])NCCc1ccccc1; conditions: other: HEK293 stably transfected, 2 min uptake, 37 °C, pH 7.4
Experimental: as §1, §2, §3, §4, §5, §6

B1: human OCT1 (Homo sapiens) (protein)
chain: MPTVDDILEQVGESGWFQKQAFLILCLLSAAFAPICVGIVFLGFTPDHHCQSPGVAELSQRCGWSPAEELNYTVPGLGPAGEAFLGQCRRYEVDWNQSALSCVDPLASLATNRSHLPLGPCQDGWVYDTPGSSIVTEFNLVCADSWKLDLFQSCLNAGFLFGSLGVGYFADRFGRKLCLLGTVLVNAVSGVLMAFSPNYMSMLLFRLLQGLVSKGNWMAGYTLITEFVGSGSRRTVAIMYQMAFTVGLVALTGLAYALPHWRWLQLAVSLPTFLFLLYYWCVPESPRWLLSQKRNTEAIKIMDHIAQKNGKLPPADLKMLSLEEDVTEKLSPSFADLFRTPRLRKRTFILMYLWFTDSVLYQGLILHMGATSGNLYLDFLYSALVEIPGAFIALITIDRVGRIYPMAMSNLLAGAACLVMIFISPDLHWLNIIIMCVGRMGITIAIQMICLVNAELYPTFVRNLGVMVCSSLCDIGGIITPFIVFRLREVWQALPLILFAVLGLLAAGVTLLLPETKGVALPETMKDAENLGRKAKPKENTIYLKVQTSEPSGT
What does the source list for B1?
Km [1]: 197 ± 54.1 µM; Vmax [1]: 0.0008 µmol/min/mg; Vmax/Km [1]: 3.81 µL/min/mg; Km [2]: 395 ± 56.8 µM; Vmax [2]: 0.00138 µmol/min/mg; Vmax/Km [2]: 3.55 µL/min/mg; Km [3]: 29.2 ± 12.2 µM; Vmax [3]: 0.00202 µmol/min/mg; Vmax/Km [3]: 73.5 µL/min/mg; Km [4]: 530 ± 44.9 µM; Vmax [4]: 0.0016 µmol/min/mg; Vmax/Km [4]: 3.03 µL/min/mg; Km [5]: 2.17 ± 0.59 µM; Vmax [5]: 0.000336 µmol/min/mg; Vmax/Km [5]: 162 µL/min/mg; Km [6]: 0.87 ± 0.19 µM; Km [7]: 0.68 ± 0.12 µM; Vmax [7]: 0.000153 µmol/min/mg; Vmax/Km [7]: 226 µL/min/mg; Km [8]: 55.7 ± 4.63 µM; Vmax [8]: 0.00409 µmol/min/mg; Vmax/Km [8]: 75 µL/min/mg; Km [9]: 558 ± 411 µM; Vmax [9]: 0.00112 µmol/min/mg; Vmax/Km [9]: 2.69 µL/min/mg; Km [10]: 65.9 ± 15.1 µM; Vmax [10]: 0.00418 µmol/min/mg; Vmax/Km [10]: 63.6 µL/min/mg; Km [11]: 13.2 ± 3.71 µM; Km [12]: 663 ± 334 µM; Vmax [12]: 0.00618 µmol/min/mg; Vmax/Km [12]: 10 µL/min/mg; Km [13]: 4675 ± 2319 µM; Vmax [13]: 0.00512 µmol/min/mg; Vmax/Km [13]: 1.27 µL/min/mg; Km [14]: 674 ± 194 µM; Vmax [14]: 0.000718 µmol/min/mg; Vmax/Km [14]: 1.04 µL/min/mg; Km [15]: 17.0 ± 5.46 µM; Vmax [15]: 0.00141 µmol/min/mg; Vmax/Km [15]: 86.7 µL/min/mg; Km [16]: 18.7 ± 2.64 µM
